The values below come from article PMC4830570, “CD36 Differently Regulates Macrophage Responses to Smooth and Rough Lipopolysaccharide” (PLoS ONE, 2016).

Test [1] concerns the target T1, CD36 on the surface of mouse peritoneal exudate macrophages (mouse (endogenous in peritoneal exudate …, UniProt Q08857 1-472)).
T1 construct: CD36, mouse, endogenous on the surface of peritoneal exudate macrophages; also called CD36 on PEMs; endogenous CD36; source: endogenous, on adherent thioglycollate-elicited peritoneal exudate macrophages of C57BL/6 mice
As to the kind of experiment: cellular ELISA; rCD14 with 1 μg/ml S-LPS on adherent PEMs, incubation on ice (0°C); bound rCD14 detected with HRP-anti-Fc. The conditions noted are these: one partner purified. For orientation: ELISA stands for enzyme-linked immunosorbent assay.

Test [2] deals with T1, CD36 on the surface of mouse peritoneal …. As to the kind of experiment: cellular ELISA; 5 μg/ml rCD14 with 1 μg/ml S-LPS on adherent PEMs, 50 min at 37°C in FCS-RPMI; bound rCD14 detected with HRP-anti-Fc. The settings on record: one partner purified.

T1 sequence (Q08857 whole entry): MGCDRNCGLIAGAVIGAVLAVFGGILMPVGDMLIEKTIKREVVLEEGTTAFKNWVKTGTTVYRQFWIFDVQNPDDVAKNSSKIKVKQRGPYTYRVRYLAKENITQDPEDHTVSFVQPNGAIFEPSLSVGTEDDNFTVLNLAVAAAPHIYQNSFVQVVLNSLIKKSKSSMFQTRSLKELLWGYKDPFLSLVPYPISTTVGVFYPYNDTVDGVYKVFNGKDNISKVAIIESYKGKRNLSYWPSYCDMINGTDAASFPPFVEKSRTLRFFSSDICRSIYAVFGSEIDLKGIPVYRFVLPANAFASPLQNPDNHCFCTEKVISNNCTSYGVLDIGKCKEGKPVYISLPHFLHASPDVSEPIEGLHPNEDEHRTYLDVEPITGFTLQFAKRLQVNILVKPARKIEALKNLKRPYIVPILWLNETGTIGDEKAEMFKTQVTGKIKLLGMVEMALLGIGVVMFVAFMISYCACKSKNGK

B1: recombinant mouse CD14 tagged with the Fc fragment of human IgG1 (Fc fusion, UniProt P10810 16-336, looked up)
chain: SPAPPEPCELDEESCSCNFSDPKPDWSSAFNCLGAADVELYGGGRSLEYLLKRVDTEADLGQFTDIIKSLSLKRLTVRAARIPSRILFGALRVLGISGLQELTLENLEVTGTAPPPLLEATGPDLNILNLRNVSWATRDAWLAELQQWLKPGLKVLSIAQAHSLNFSCEQVRVFPALSTLDLSDNPELGERGLISALCPLKFPTLQVLALRNAGMETPSGVCSALAAARVQLQGLDLSHNSLRDAAGAPSCDWPSQLNSLNLSFTGLKQVPKGLPAKLSVLDLSYNRLDRNPSPDELPQVGNLSLKGNPFLDSESHSEKFN
notes: CD14, mouse, recombinant soluble receptor from R&D Systems; also called rCD14; source: bought: R&D Systems
Consider B1, for which the “fold higher binding on ice than at 37°C” value in test [1] is about 2 fold. Besides, the “fold increase of binding with S-LPS over binding without LPS” value in test [2] is over 25 fold.
